The text below walks through data of paper PMC3824618.

The target of this test is T1, wild-type human cystathionine β-synthase, HIS-tagged, expressed in HEK-293 cells (human), P35520.
T1 chain: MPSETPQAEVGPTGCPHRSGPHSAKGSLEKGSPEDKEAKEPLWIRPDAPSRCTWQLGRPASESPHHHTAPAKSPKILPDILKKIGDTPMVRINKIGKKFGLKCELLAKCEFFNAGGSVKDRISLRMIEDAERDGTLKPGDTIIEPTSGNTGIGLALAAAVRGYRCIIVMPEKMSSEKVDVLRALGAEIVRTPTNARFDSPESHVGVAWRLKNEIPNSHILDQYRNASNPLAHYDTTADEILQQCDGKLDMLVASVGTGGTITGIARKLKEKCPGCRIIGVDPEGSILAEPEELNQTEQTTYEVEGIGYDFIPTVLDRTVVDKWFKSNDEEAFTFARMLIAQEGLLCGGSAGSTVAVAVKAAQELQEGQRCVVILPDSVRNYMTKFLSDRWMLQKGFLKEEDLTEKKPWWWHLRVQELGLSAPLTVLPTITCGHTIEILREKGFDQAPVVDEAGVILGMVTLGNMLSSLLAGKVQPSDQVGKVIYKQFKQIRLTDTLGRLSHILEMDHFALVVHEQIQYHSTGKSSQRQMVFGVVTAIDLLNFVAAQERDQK
The experiment in a line: native gel or EMSA. To be noted: remark: other sources report otherwise. A general note: Mobility shift assays separate free from complexed probe on a gel.

Broadly, the stoichiometry N is the number of molecules, sites or subunits per partner or assembly.

B1: wild-type human cystathionine β-synthase, HIS-tagged, expressed in HEK-293 cells, P35520 1-551 (enzyme)
chain: MPSETPQAEVGPTGCPHRSGPHSAKGSLEKGSPEDKEAKEPLWIRPDAPSRCTWQLGRPASESPHHHTAPAKSPKILPDILKKIGDTPMVRINKIGKKFGLKCELLAKCEFFNAGGSVKDRISLRMIEDAERDGTLKPGDTIIEPTSGNTGIGLALAAAVRGYRCIIVMPEKMSSEKVDVLRALGAEIVRTPTNARFDSPESHVGVAWRLKNEIPNSHILDQYRNASNPLAHYDTTADEILQQCDGKLDMLVASVGTGGTITGIARKLKEKCPGCRIIGVDPEGSILAEPEELNQTEQTTYEVEGIGYDFIPTVLDRTVVDKWFKSNDEEAFTFARMLIAQEGLLCGGSAGSTVAVAVKAAQELQEGQRCVVILPDSVRNYMTKFLSDRWMLQKGFLKEEDLTEKKPWWWHLRVQELGLSAPLTVLPTITCGHTIEILREKGFDQAPVVDEAGVILGMVTLGNMLSSLLAGKVQPSDQVGKVIYKQFKQIRLTDTLGRLSHILEMDHFALVVHEQIQYHSTGKSSQRQMVFGVVTAIDLLNFVAAQERDQK
With B1, the stoichiometry N was found to be 4.
